Assay results as given in patent US20060148057A1, “Thioredoxin mutants and uses thereof” (priority 2002, published 2006).

Test system: caspase 3
Assay: ASK1-induced caspase 3 activity assay in BAEC (Ac-DEVD-AMC substrate)
Assay type: cell-based, Bovine
Details: co-expression with ASK1; n=4, p<0.05
Description: Caspase 3 activity assay: Caspase 3 activity was measured with a Caspase 3 fluorescence kit (Sigma) according to the Manufacturer's protocol. Briefly, BAEC were harvested in Caspase 3 lysis buffer (25 mM Hepes, pH 7.4, 5 mM CHAPS, 5 mM DTT) and incubated on ice for 15-20 min followed by a centrifugation at 14,000× g for 10-15 min at 4° C. For each reaction, 5 μl (200 μg) of cell lysate was incubated with 200 μl of 16 μM Caspase 3 peptide substrate acetyl-ASP-Glu-Val-Asp-7 amido-4-methylcoumarin (Ac-DEVD-AMC) in the assay buffer (25 mM Hepes, pH 7.4, 5 mM EDTA, 0.1% CHAPS, 5 mM DTT) in the presence or absence of 100 μM Caspase 3 inhibitor (Ac-DEVD-CHO). The reaction was incubated in the dark for 1-1.5 h and fluorescence was measured in a fluorescence plate reader. The measured fluorescence was used as an arbitrary unit.
Then the effects. of Trx on ASK1-induced caspase 3 activation, a hallmark of the execution of apoptotic cell death (Green D R. Apoptotic pathways: paper wraps stone blunts scissors. Cell. 102:1-4 (2000); Hengartner MO. The biochemistry of apoptosis. Nature. 407:770-6 2000)) was examined. Caspase 3 activity was determined by an in vitro assay using peptide substrate acetyl-ASP-Glu-Val-Asp-7 amido-4-methylcounarin (Ac-DEVD-AMC). Overexpression of ASK1 in BAEC increased caspase 3 activity compared to the control cells (FIG. 6B).

inhibition of ASK1-induced caspase 3 activity: failed to block
B1: Trx-CS: double-mutant of C32S and C35S of Trx (protein)
chain: MVKQIESKTAFQEALDAAGDKLVVVDFSATWSGPSKMIKPFFHSLSEKYSNVIFLEVDVDDCQDVASECEVKCMPTFQFFKKGQKVGEFSGANKEKLEATINELV
modifications: left off: a dimerising Fc or GST; large carriers; small tags and cut ends
